Values joined by “and” are separate entries in the source; they are usually repeats but may differ in a detail not shown here. Equal entries are not always repeated. Where two headings read alike, the source gives them in different places.
Key:
[1] = H460 mouse tumor and plasma pharmacokinetics; type: in vivo; conditions: mouse, 25 mg/kg IV, mean of 3 animals
Description: (§1) Conjugate accumulation at 24 and 48 h in tumor and plasma of NCI-H460 tumor-bearing mice (lung cancer). Conjugate 1 was dosed at 25 mg/kg intravenously.

[2] = test system: NCI-H460 tumor-bearing mice; assay: H460 mouse tumor and plasma pharmacokinetics; type: in vivo; conditions: 25 mg/kg IV, individual animals
Description: as §1

[3] = Plasma profile in male SD rats; type: in vivo, rat; conditions: 5 mg/kg IV; for Vd: male, SD, iv, 5 mg/kg
Description: Plasma profile for Conjugate 1 at 5 mg/kg dose (via IV) in male SD rats was obtained. Plasma profile for lutetium from Conjugate 1 was also measured.

[4] = Biodistribution in healthy rat tissues; type: in vivo; conditions: 5 mg/kg, healthy rats; for level at time molar: rat
Description: Biodistributions of the conjugates were studied. Conjugate 1 was dosed at 5 mg/kg to healthy rats. The amount of Conjugate 1 and lutetium from Conjugate 1 in rat spleen, kidney, brain, liver and bone marrow was measured.

[5] = Biodistribution in H460 tumor model; conditions: mouse, in vivo, 5 mg/kg, Tumor Levels, 24 h
Text: (§2) In other studies, biodistribution of the conjugates was studied with H460 and H69 tumor models.

H460 tumor model mice = assay: Biodistribution in H460 tumor model; conditions: 5 mg/kg
Text: as §2

[6] = Biodistribution in H69 tumor model; conditions: mouse, in vivo, 5 mg/kg, Tumor Levels, 24 h, H69, 5 mg/kg; H69
Text: as §2

H69 tumor model mice = assay: Biodistribution in H69 tumor model; conditions: 5 mg/kg; 24 h; H69
Text: as §2

[7] = H460 mouse tumor and plasma pharmacokinetics; type: in vivo; conditions: mouse, 25 mg/kg IV, mean of 3 animals; remark: listed apart in the source
[8] = test system: NCI-H460 tumor-bearing mice; assay: H460 mouse tumor and plasma pharmacokinetics; type: in vivo; conditions: 25 mg/kg IV; 1 h; individual animals
[9] = Lu levels in tumor, kidney and liver of mice at 0.5 mg/kg
[10] = plasma, read-out: Compound 1 Conc. in NCI-H460 Mouse Plasma, Mean
[11] = tumor, read-out: Compound 1 Conc. in NCI-H460 Mouse Tumor, Mean
[12] = H460 and H69 tumor models, Conjugate 1 vs Conjugate 2

CCNC(=O)c1nnc(-c2cc(C(C)C)c(O)cc2O)n1-c1ccc(CN2CCN(C(=O)CN3CCN4CCN5CCN(CC3)CC(=O)[O][Lu]([O]C(=O)C5)[O]C(=O)C4)CC2)cc1 [Conjugate 1]
level at time molar at 24 h [1, 10]: 29 nM | level at time molar at 48 h [1, 10]: 16 nM | level at time molar at 24 h [1, 11]: 4040 nM | level at time molar at 48 h [1, 11]: 2710 nM | Compound 1 Conc. in NCI-H460 Mouse Plasma ([2]; 1 h): 1.07 µM and 1.04 µM and 7.98 µM | Compound 1 Conc. in NCI-H460 Mouse Plasma ([2]; 24 h): 0.020 μM (2×) and 0.046 μM | Compound 1 Conc. in NCI-H460 Mouse Tumor ([2]; 24 h): 3.85 µM and 4.01 µM and 4.26 µM | Compound 1 Conc. in NCI-H460 Mouse Plasma ([2]; 48 h): 0.016 µM and 0.013 µM and 0.020 µM | Compound 1 Conc. in NCI-H460 Mouse Tumor ([2]; 48 h): 1.95 µM and 3.09 µM and 3.10 µM | t1/2 ([3]; analyte Conjugate 1): 1.45 H | t1/2 ([3]; analyte Lu from Conjugate 1): 0.56 H | Vd ([3]; rat, analyte Conjugate 1, read-out: Vss_obs): 0.483 L/kg | Vd ([3]; rat, analyte Conjugate 1, read-out: Vz_obs): 1.44 L/kg | AUC(0-t) ([3]; rat, analyte Conjugate 1): 7.31 µM·h | Cmax ([3]; rat, analyte Conjugate 1): 14.2 µM | AUC(0-inf) ([3]; rat, analyte Conjugate 1, read-out: AUC 0-inf_obs): 7.34 µM·h | clearance ([3]; rat, analyte Conjugate 1, read-out: Cl-obs): 11.1 mL/min/kg | Conjugate 1 Conc., Bone marrow ([4]; individual animals A1-A3): 0.063 µM and 0.664 µM and 0.838 µM | Conjugate 1 Conc., Kidney ([4]; individual animals A1-A3): 7.75 µM and 7.50 µM and 8.05 µM | Conjugate 1 Conc., Liver ([4]; individual animals A1-A3): 1.50 µM and 2.46 µM and 3.33 µM | Conjugate 1 Conc., Spleen ([4]; individual animals A1-A3): 0.148 µM and 0.134 µM and 0.232 µM | Lu from Conjugate 1 Conc., Bone marrow ([4]; individual animals A1-A3): 0.030 µM and 0.021 µM and 0.022 µM | Lu from Conjugate 1 Conc., Brain ([4]; individual animals A1-A3): <BLQ | Lu from Conjugate 1 Conc., Kidney ([4]; individual animals A1-A3): 3.93 µM and 4.14 µM and 4.44 µM | Lu from Conjugate 1 Conc., Liver ([4]; individual animals A1-A3): 2.34 µM and 2.25 µM and 3.47 µM | Lu from Conjugate 1 Conc., Spleen ([4]; individual animals A1-A3): 0.154 µM and 0.163 µM and 0.198 µM | Lu from Conjugate 1 Conc., Bone marrow, Mean ([4]; mean): 0.024 µM | Lu from Conjugate 1 Conc., Brain, Mean ([4]; mean): <BLQ | Lu from Conjugate 1 Conc., Kidney, Mean ([4]; mean): 4.17 µM | Lu from Conjugate 1 Conc., Spleen, Mean ([4]; mean): 0.172 µM | level at time molar ([4]; bone marrow, mean, read-out: Conjugate 1 Conc., Bone marrow, Mean): 522 nM | level at time molar ([4]; brain, individual animals A1-A3, read-out: Conjugate 1 Conc., Brain): 37 nM | level at time molar ([4]; brain, mean, read-out: Conjugate 1 Conc., Brain, Mean): 49 nM | level at time molar ([4]; kidney, mean, read-out: Conjugate 1 Conc., Kidney, Mean): 7770 nM | level at time molar ([4]; liver, mean, read-out: Conjugate 1 Conc., Liver, Mean): 2430 nM | level at time molar ([4]; spleen, mean, read-out: Conjugate 1 Conc., Spleen, Mean): 171 nM | level at time molar at 24 h ([5]; H460 (1), H460 study (1)): 1740 nM | level at time molar at 24 h ([5]; H460 (2), H460 study (2)): 2490 nM | Tumor:liver ratio, 24 h, H460 (1) (H460 tumor model mice; 24 h, H460 study (1)): 0.16 | Tumor:kidney ratio, 24 h, H460 (2) (H460 tumor model mice; 24 h, H460 study (2)): 1.8 | Tumor:liver ratio, 24 h, H460 (2) (H460 tumor model mice; 24 h, H460 study (2)): 1.2 | Clearance from plasma (H460 tumor model mice; H460 and H69 tumor models): clear rapidly from plasma | Tumor retention (comparison) (H460 tumor model mice; [12]): similar | Tumor uptake (comparison) (H460 tumor model mice; [12]): noticeably higher than Conjugate 2 | tumor:kidney ratio (H460 tumor model mice; H460 tumor model): around 2 | tumor:liver ratios (H460 tumor model mice; at 24 h, across H460 and H69 tumor models): 0.1-1 | level at time molar at 24 h [6]: 1610 nM | Tumor:liver ratio, 24 h, H69 (H69 tumor model mice): 0.18 | level at time molar at 1 h [7, 10]: 3.36 µM | level at time molar at 1 h [7, 11]: 9.13 µM | Compound 1 Conc. in NCI-H460 Mouse Tumor [8]: 9.30 µM and 7.05 µM and 11.1 µM | Average Lu in Liver [9]: 23.85 % ID/g | Average Lu in kidney [9]: 1.00 % ID/g | Average Lu in tumor [9]: 1.28 % ID/g
